# Measurements as given in patent publication US20260069689A1 (Regeneron, published 2026).
# Where a chain is given by its changes, count along the chain named.
# B1: mAb14258 (antibody, V domains shown)
# VH: QLQLQESGPGLVKPSETLSLICTGSGDSISSSHYYWGWIRQPPGKGLEWIGSTYFSGSTYYNPSLKSRVSISVDTSKNQVSLKLISVTAADTAVYYCAREMGATLGDYWGPGTLVTVSS
# VL: QSVLTQPPSASGTPGQRVTISCSGSSSNIGNNYVYWYQQFPGTTPRLLIYRNNERPSGVPDRFSGSKSGTSASLVISGLRSEDEADYYCAAWDDSLSAHYVFGTGTKVTVLG
# B2: mAb14294 (antibody, V domains shown)
# VH: EVQLVESGGGLVQPGGSLRLSCAASGFTFSNHWMDWVRQAPGKGLVWVSRINSDGSSTDYADSVRGRFTMSRDNAKNTLYLQMSSLRAEDTAVYYCAREGMIFGAVIIPGWYFDLWGRGALVTVSS
# VL: EIVLTQSPGTLSLSPGERATLSCRASQSVSSSQLAWYQQKPGQAPRLLIYGASSRATGIPDRFSGSGSGTDFTLTISRLEPEDFAVYYCQQYDSFGQGTKLEIKR
# B3: mAb14283 (antibody, V domains shown)
# VH: QVQLQESGPGLVKPSGTLSLTCDVSGGSISSNNWWSWVRQRPGKGLQWIGEIYHNENTNYNPSLKSRVIMSIDKSKNQFSLKLTSVTAADTAVYYCARGDVLDWFDPWGQGTLVTVSS
# VL: QSALTQPASVSGSPGQSTTISCTGTSSDVGGYNYVSWYQQYPGKAPKLMIYDVTNRPSGVSHRFSGSKSGNTASLTISGLQAEDEADYYCSSYTSSSTVIFGGGTKLTVLG
# B4: mAb14235 (antibody, V domains shown)
# VH: QITLKESGPTLVKPTQTLTLTCTFSGFSLNTGGVGVGWIRQPPGNALEWLALIYWDDDKRYNPSLKTRLTISKDTSKNQVVLTMTNMDPVDTATYFCAHLTIAVIVDFWGQGTLVTVSS
# VL: QSALTQPASVSGSPGQSITISCTATSSDVGTYNYVSWFQHHPGKAPKLMIYEVTNRPSGVSNRFSGSKSGNTASLTISGLQAEDEADYYCSSYTTTSIVFGGGTKLTVLG
# B5: mAb14289 (antibody, V domains shown)
# VH: QVQLVQSGPEVKKPGASVKVSCKASGYTFTSYAISWVRQAPGQGLEWMGWISAYNGNTNYAQKLQGRVTMTTDTFTSTAYMELRSLRSDDTAVYYCAVPADHITFDYWGQGTLVTVSS
# VL: EIVLTQSPGTLSLSPGERATLSCRASQSVSSYLAWYQQKPGQAPRLLIHGASSRATGIPDRFSGSGSGTDFTLTISRLEPEDFAVYYCQQYGSSFLTFGGGTKVEIKR
# B6: mAb13458 (antibody, V domains shown)
# VH: EVQLVESGGGLVQPGRSLRLSCAASGFTFDDYAMHWVRQAPGKGLEWVSGISWNSGSIGYADSVKGRFTISRDNAKNSLYLQMNSLRAEDTALYYCAKDIGITTPYWGQGTLVTVSS
# VL: AIQMTQSPSSLSASVGDRVTITCRASQDIRNDLGWYQQKPGKAPKLLIYSASSLQTGVPSRFSGSGSGTDFTLTISSLHPEDFATYYCLQDYWYTWTFGQGTKVEIKR
# B7: mAb13457 (antibody, V domains shown)
# VH: B6 VH
# VL: B6 VL with W93D
# B8: mAb13459 (antibody, V domains shown)
# VH: B6 VH
# VL: B6 VL with W93N, T95V
# B9: mAb14313 (antibody, V domains shown)
# VH: EVQLVESGGGLVQPGRSLRLSCVASGFTFDDSAMHWVRQPPGKGLEWVSGISWNSGIIGYAESVKGRFIISRDNAKNSLFLHMRGLRPEDTAVYYCARDRLELSYYYYGMDVWGQGTTVTVSS
# VL: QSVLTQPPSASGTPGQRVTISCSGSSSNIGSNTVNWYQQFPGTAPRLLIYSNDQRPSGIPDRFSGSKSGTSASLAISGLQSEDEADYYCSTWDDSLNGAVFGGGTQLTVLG
# B10: mAb14247 (antibody, V domains shown)
# VH: QITLKESGPTLVKPTQTLTLTCTFSGFSLSTSAVGVGWIRQPPGKALEWLALIYWDDDKRYSPSLKSRLTITKDTSKNQLVLTMTNVDPVDTATYYCAHHTIQLIFDYWGQGTLVTVSS
# VL: QSALTQPASVSGSPGQSITISCTATSSDVGNYNYVSWYQQHPGKAPKLMIYEVSNRPSGVSNRFSGSKSGNTASLTISGLQAEDEADYYCSSYTSSSTPLVFGGGTKLTVLG
# B11: mAb14315 (antibody, V domains shown)
# VH: QVQLVQSGAEVKKPGSSVKVSCKASGDTFSTYAINWVRQAPGQGLEWMGRFIHIFGTANYAQKFQGRVTITADESTSTAYMELRSLRSEDTAVYYCARDGVDYGDYRPDYWGQGTLVTVSS
# VL: EIVLTQSPGTLSLSPGERATLSCRASQSVSSNYLAWYQQKPGQAPRLLIYGASSRATGIPERFSGSGSGTDFTLTISRLEPEDFAVYYCQQYGSSLYTFGQGTKLEIKR
# B12: mAb14257 (antibody, V domains shown)
# VH: EVQLVESGGGLVQPGGSLRLSCAASGFTVSRSYMNWVRQAPGKGLEWVSVVFTGGTTKHTDSVKGRFTISRDNSMNTLYLQMNSLRPEDTAVYYCARVAIVETTGAFDIWGQGTMVTVSS
# VL: QSVLTQPPSVSGAPGQRVTISCTGTSSNIGADFDVHWYQQFPGTAPKLLIYGHTNRPSGIPDRFSGSKSGTSASLAITGLQAEDEADYYCQSYDSSLSGSVVFGGGTKLTVLG
# B13: mAb14255 (antibody, V domains shown)
# VH: QVQLQESGPGLVKPSETLSLTCTVSGGSISGYYWSWIRQPPGKGLDWIGYIYYRGNTNYNPSLKSRVTISVDTSNNQFSLKLSSVTAADTAVYYCARYGEGYGDASGYHFDYWGQGTLVTVSS
# VL: QSALTQPASVSGSPGQSITISCTGTSSDVGSYNLVSWYQQHPGKAPKLMIYEDSKRPSGVANPFSGSKSGNTASLTISGLQAEDEADYYCSSYAGSSTWVFGGGTKLTVLG
# B14: mAb14286 (antibody, V domains shown)
# VH: QVQLVQSGAEVKKPGASVKVSCKASGYTFTDYFIHWVRQAPGQGLEWMGWINPTSGGTNYAQKFRGRVTMTRDTSISTAYVELSRLRSDDTALYYCARDLPFYSDTKQFDYWGQGTLVTVSS
# VL: B3 VL with S13Y, T18I, Y41H, Y51F, T54S, H62N, I77F, V99L, I100V
# B15: mAb14282 (antibody, V domains shown)
# VH: QVQLVQSGAEVKKPGASVKVSCKASGYIFTDHYMHWVRQAPGQGLEWMGWINPNSGATNYAQNFQGRVTMTRDTSIITVYMELSRLRSDDTAVYYCARDSSPYMIRYTMDVWGQGTTITVSS
# VL: QSALTQPASVSGSPGQSITISCTGTSSDVGSYNLVSWYQQHPGKAPKLMIYELTKRPSGVSNRFSGSKSGNTASLTISGLQAEDEADYYCSSYRGSVTDVVFGGGTKLTVLG
# B16: mAb14281 (antibody, V domains shown)
# VH: QVQLVQSGADVKKPGASVKVSCKTSGYIFTGYYIHWVRQAPGQGLEWMGWINPNSGGTNSAQKFQGRVTMTRDTSISTVYMELSRLRSDDTAVYYCAKSNSFSVLDYNFDYWGQGTLVTVSS
# VL: SSELTQDPAVSVALGQTVRITCQGDSLRSYYASWYQQKPGQAPVLVIYDKNNRPSGIPDRFSGSSSGNTASLTITGAQAEDEADYYCNSRDSSRNHLVVFGGGTKLTVLG
# B17: mAb14230 (antibody, V domains shown)
# VH: EVQLVESGGGLIQPGRSLRLSCAASGFTFDDYAMHWVRQAPGKGLEWVSGISWNSVSIDYADSVKGRFTISRDNAKNSLYLQMTSLTVEDTALYYCAKAFGYETLTGSDYFAYWGPGTLVTVSS
# VL: EIVLTQSPGTLSLSPGERATLSCRASQTVISTYLAWYQQKPGQSPRLLIYGASSRATGIPDRFSGSGSGTDFTLTISRLEPEDFAVYYCQQYGSSPQLTFGGGTKVEIKR
# Target: T1, SARS-CoV2 Spike ecto foldon Trimer expressed with a C-terminal myc-myc-hexahistidine (SARS-CoV-2, UniProt P0DTC2 14-1213)
# T1 construct: extracellular domain
# Experiment: SPR Biacore, mAb captured by anti-hFc, 37C
Binder,Kd [nM],koff [s⁻¹],kon [M⁻¹ s⁻¹],t½ [h]
B1,0.0776,7.93e-05,1.02e+06,2.43
B2,0.033,2.29e-05,694000,8.4
B3,0.0847,7.32e-05,865000,2.63
B4,0.0517,3.8e-05,735000,5.07
B5,0.0728,6.63e-05,911000,2.91
B6,0.05,4.08e-05,815000,4.72
B7,0.0779,–,–,3.22
B8,0.0599,4.76e-05,794000,4.05
B9,0.0984,9.94e-05,1.01e+06,1.94
B10,0.0701,4.72e-05,674000,4.08
B11,0.0437,3.25e-05,743000,5.93
B12,0.141,0.000165,1.17e+06,1.17
B13,0.155,0.000161,1.03e+06,1.2
B14,0.0544,0.000141,2.59e+06,1.37
B15,0.162,0.000171,1.05e+06,1.13
B16,0.139,0.000116,834000,1.66
B17,0.0991,8.97e-05,906000,2.14

# Target: T1, SARS-CoV2 Spike ecto foldon Trimer …
# Experiment: SPR Biacore, mAb captured by anti-hFc, 25C
Binder,Kd [nM],koff [s⁻¹],kon [M⁻¹ s⁻¹],t½ [h]
B1,0.0232,4.91e-05,2.12e+06,3.92
B2,0.0329,2.29e-05,697000,8.39
B3,0.0539,8.66e-05,1.61e+06,2.22
B4,0.0474,3.69e-05,779000,5.21
B5,0.0696,6.35e-05,912000,3.03
B6,0.0351,4.26e-05,1.21e+06,4.52
B7,0.0718,–,–,3.49
B8,0.0389,5.46e-05,1.41e+06,3.52
B9,0.0565,0.000113,2e+06,1.7
B10,0.0521,4.91e-05,944000,3.92
B11,0.0483,3.15e-05,652000,6.1
B12,0.0434,0.000107,2.45e+06,1.81
B13,0.0706,0.000138,1.96e+06,1.39
B14,0.0331,8.71e-05,2.63e+06,2.21
B15,0.0624,0.000133,2.14e+06,1.44
B16,0.097,8.09e-05,834000,2.38
B17,0.0404,6.09e-05,1.51e+06,3.16
